Among the data in publication PMC11366018 (Nature Communications, 2024) are Kd, koff and kon values, retold here.

Values joined by “and” are separate entries in the source; they are usually repeats but may differ in a detail not shown here. Equal values may be shown once.

First the molecules themselves.
B1: H18 (antibody, V domains shown)
VH: QVQLQESGPGLVKPSETLSLTCTVSGGSVSSGGYFWSWIRQPPGKGLEWIGCIYYSGSTNYNPSLKSRVTISVDTSKDQFSLKLSSVTAADTAVYYCARQLWLRGRFDYWGQGTLVTVSS
VL: NFMLTQPHSVSESPGKTVTISCTRSSGSIASNYVQWYQQRPGSSPTTVIYEDNQRPSGVPDRFSGSIDSSSNSASLTISGLKTEDEADYYCQSYDSSNVVFGGGTKLTVL
notes: human IgG1
B2: R1-26 (antibody, V domains shown)
VH: EVQLVESGGGLVQPGGSLRLSCAASGFTFSSYWMSWVRQAPGKGLEWVANIKQDGSEKYYVDSVKGRFTISRDNAKNSLYLQMNSLRAEDTAVYYCARGQLGPWVGVDYWGQGTLVTVSS
VL: NFMLTQPHSVSESPGKTVTISCTGSSGSIASNYVQWYQQRPGSAPTTVIYEDNQRPSGVPDRFSGSIDSSSNSASLTISGLKTEDEADYYCQSYDSSNWVFGGGTQLTVL
B3: S2A4 (antibody, V domains shown)
VH: EVQLVESGGGLVQPGGSLRLSCAASGFTFSSYWMNWVRQAPGKGLEWVANIKQDGSEKYYVDSVKGRFTISRDNAKNSLFLQMNSLRAEDTAVYYCARVWWLRGSFDYWGQGTLVTVSS
VL: NFMLTQPHSVSESPGKTVTISCTGSSGSIASNYVQWYQQRPGSAPTTVIYEDNQRPSGVPDRFSGSIDSSSNSASLTISGLKTEDEADYYCQSYDSSNHVVFGGGTKLTVL

Broadly, the Kd is a measure of binding affinity in units of concentration. A low value points to a tighter complex. As usually defined, the koff is a measure of how fast the partners let go of each other. The low end stands for slow dissociation, the high end for fast dissociation. The term kon denotes the second-order rate constant of association. A high value points to fast association.

This assay concerns the target SARS-CoV-2 RBD (WT) (SARS-CoV-2 Wuhan-Hu-1 (wildtype), UniProt P0DTC2). The assay can be described thus: BLI. Conditions: both partners purified.
On to B1, for which the Kd is 29.5 nM and 29 nM; the koff is 0.00931 s⁻¹ and 0.0162 s⁻¹; the association rate constant (kon) is 316000 M⁻¹ s⁻¹ and 560000 M⁻¹ s⁻¹.

In turn, B2 gave a dissociation constant Kd of 5.75 nM, a koff of 0.00291 s⁻¹ and an association rate constant (kon) of 507000 M⁻¹ s⁻¹.

In turn, B3 returned a Kd of 25.3 nM, a koff of 0.0096 s⁻¹ and a kon of 380000 M⁻¹ s⁻¹.
